Data as given in IntAct's records for PubMed 16002700.

B1: Natural killer cell receptor 2B4 (Homo sapiens), Q9BZW8 (parent)
chain: MLGQVVTLILLLLLKVYQGKGCQGSADHVVSISGVPLQLQPNSIQTKVDSIAWKKLLPSQNGFHHILKWENGSLPSNTSNDRFSFIVKNLSLLIKAAQQQDSGLYCLEVTSISGKVQTATFQVFVFESLLPDKVEKPRLQGQGKILDRGRCQVALSCLVSRDGNVSYAWYRGSKLIQTAGNLTYLDEEVDINGTHTYTCNVSNPVSWESHTLNLTQDCQNAHQEFRFWPFLVIIVILSALFLGTLACFCVWRRKRKEKQSETSPKEFLTIYEDVKDLKTRRNHEQEQTFPGGGSTIYSMIQSQSSAPTSQEPAYTLYSLIQPSRKSGSRKRNHSPSFNSTIYEVIGKSQPKAQNPARLSRKELENFDVYS

Variants of: B1
Settings: with cd48_human CD48, P09326
Sequence of cd48_human CD48, P09326 (P09326 whole entry): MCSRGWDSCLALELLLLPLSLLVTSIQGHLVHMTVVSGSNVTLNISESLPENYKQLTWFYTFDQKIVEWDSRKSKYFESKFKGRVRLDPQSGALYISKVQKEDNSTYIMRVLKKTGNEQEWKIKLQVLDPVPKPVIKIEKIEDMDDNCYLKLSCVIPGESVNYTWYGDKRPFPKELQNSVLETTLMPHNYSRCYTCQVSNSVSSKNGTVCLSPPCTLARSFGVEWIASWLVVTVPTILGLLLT

Variant	effect of a mutation on the interaction
MLGQVVTLILLLLLKVYQGKGCQGSADHVVSISGVPLQLQPNSIQTKVDSIAWKKLLPSQNGFHHILAWENGSLPSNTSNDRFSFIVKNLSLLIKAAQQQDSGLYCLEVTSISGKVQTATFQVFVFESLLPDKVEKPRLQGQGKILDRGRCQVALSCLVSRDGNVSYAWYRGSKLIQTAGNLTYLDEEVDINGTHTYTCNVSNPVSWESHTLNLTQDCQNAHQEFRFWPFLVIIVILSALFLGTLACFCVWRRKRKEKQSETSPKEFLTIYEDVKDLKTRRNHEQEQTFPGGGSTIYSMIQSQSSAPTSQEPAYTLYSLIQPSRKSGSRKRNHSPSFNSTIYEVIGKSQPKAQNPARLSRKELENFDVYS [K68A]	decreasing interaction
MLGQVVTLILLLLLKVYQGKGCQGSADHVVSISGVPLQLQPNSIQTKVDSIAWKKLLPSQNGFHHILAWANGSLPSNTSNDRFSFIVKNLSLLIKAAQQQDSGLYCLEVTSISGKVQTATFQVFVFESLLPDKVEKPRLQGQGKILDRGRCQVALSCLVSRDGNVSYAWYRGSKLIQTAGNLTYLDEEVDINGTHTYTCNVSNPVSWESHTLNLTQDCQNAHQEFRFWPFLVIIVILSALFLGTLACFCVWRRKRKEKQSETSPKEFLTIYEDVKDLKTRRNHEQEQTFPGGGSTIYSMIQSQSSAPTSQEPAYTLYSLIQPSRKSGSRKRNHSPSFNSTIYEVIGKSQPKAQNPARLSRKELENFDVYS [K68A;E70A]	disrupting interaction
MLGQVVTLILLLLLKVYQGKGCQGSADHVVSISGVPLQLQPNSIQTKVDSIAWKKLLPSQNGFHHILKWANGSLPSNTSNDRFSFIVKNLSLLIKAAQQQDSGLYCLEVTSISGKVQTATFQVFVFESLLPDKVEKPRLQGQGKILDRGRCQVALSCLVSRDGNVSYAWYRGSKLIQTAGNLTYLDEEVDINGTHTYTCNVSNPVSWESHTLNLTQDCQNAHQEFRFWPFLVIIVILSALFLGTLACFCVWRRKRKEKQSETSPKEFLTIYEDVKDLKTRRNHEQEQTFPGGGSTIYSMIQSQSSAPTSQEPAYTLYSLIQPSRKSGSRKRNHSPSFNSTIYEVIGKSQPKAQNPARLSRKELENFDVYS [E70A]	decreasing interaction
